Test results reported in patent publication US20210169936A1 (AFFIMED, published 2021).
Substitutions are numbered along the chain they refer to.

B1: scFv CD16A (CD16-3) (scFv)
scFv: QVQLVQSGAEVKKPGESLKVSCKASGYTFTNYYMQWVRQAPGQGLEWMGVINPGGGSTSYAQKFQGRVTMTRDTSTSTVYMELSSLRSEDTAVYYCARGSAYYYDFADYWGQGTLVTVSSGGSGGSGGSGGSGGSGGSSYVLTQPSSVSVAPGQTARITCGGHNIGSQSVHWYQQKPGQAPVLVIYQDSKRPSGIPERFSGSNSGNTATLTISGTQAMDEADYYCQVWDNYSVVFGGGTKLTVLAAAGSHHHHHH
B2: scFv CD16A (CD16-1) (scFv)
scFv: QVQLVQSGAEVKKPGESLKVSCKASGYTFTSYYMHWVRQAPGQGLEWMGIINPSGGSTSYAQKFQGRVTMTRDTSTSTVYMELSSLRSEDTAVYYCARGSAYYYDFADYWGQGTLVTVSSGGSGGSGGSGGSGGSGGSSYVLTQPSSVSVAPGQTATISCGGHNIGSKNVHWYQQRPGQSPVLVIYQDNKRPSGIPERFSGSNSGNTATLTISGTQAMDEADYYCQVWDNYSVLFGGGTKLTVLAAAGSHHHHHH
notes: also called LSIV21 scFv
B3: scFv CD16A (CD16-2) (scFv)
scFv: B2 scFv with I50A, N52E, S54M, G55Y
notes: also called CD16-2 scFv
B4: EGFR-1 scFv (scFv)
scFv: QVQLQESGPGLVKPSETLSLTCTVSGGSVSSGSYYWSWIRQPPGKGLEWIGYIYYSGSTNYNPSLKSRVTISVDTSKNQFSLKLSSVTAADTAVYYCARNPISIPAFDIWGQGTMVTVSSGGSGGSGGSGGSGGSGGSQPVLTQPPSVSVAPGKTARITCGGNNIGSKSVHWYQQKPGQAPVLVIYYDSDRPSGIPERFSGSNSGNTATLTISRVEAGDEADYYCQVWDTSSDHVLFGGGTKLTVLAAAGSHHHHHH
notes: also called scFv EGFR (EGFR-1); control scFv
B5: scFv CD16A (CD16-7) (scFv)
scFv: QVQLVQSGAEVKKPGESLKVSCKASGYTFTNYYMHWVRQAPGQGLEWMGVIEPDGGRRTYAQKFQGRVTMTRDTSTSTVYMELSSLRSEDTAVYYCARGSAYYYDFADYWGQGTLVTVSSGGSGGSGGSGGSGGSGGSEIVLTQSPATLSLSPGERATLSCRGHQGVSGDVHWYQQKPGQAPRLLIYQANKRASGIPARFSGSGSGTEFTLTISSLEPEDFAVYYCQQWDNYSVTFGQGTKVEIKAAAGSHHHHHH
B6: BCMA-1/CD16-2 TandAb (CD16-2) (bispecific antibody)
chain: EVQLLESGGGLVQPGGSLRLSCAASGFTFSNYDMAWVRQAPGKGLEWVSSISTRGDITSYRDSVKGRFTISRDNSKNTLYLQMNSLRAEDTAVYYCARQDYYTDYMGFAYWGQGTLVTVSSGGSGGSGGSGGSSYVLTQPSSVSVAPGQTATISCGGHNIGSKNVHWYQQRPGQSPVLVIYQDNKRPSGIPERFSGSNSGNTATLTISGTQAMDEADYYCQVWDNYSVLFGGGTKLTVLGGSQVQLVQSGAEVKKPGESLKVSCKASGYTFTSYYMHWVRQAPGQGLEWMGAIEPMYGSTSYAQKFQGRVTMTRDTSTSTVYMELSSLRSEDTAVYYCARGSAYYYDFADYWGQGTLVTVSSGGSGGSGGSGGSAIQMTQSPSSLSASVGDRVTITCRASEDIYNGLAWYQQKPGKAPKLLIYGASSLQDGVPSRFSGSGSGTEFTLTISSLQPEDEATYYCAGPHKYPLTFGGGTKVEIK
B7: EGFR-1/CD16-1 TandAb (CD16-1) (bispecific antibody)
chain: QVQLQESGPGLVKPSETLSLTCTVSGGSVSSGSYYWSWIRQPPGKGLEWIGYIYYSGSTNYNPSLKSRVTISVDTSKNQFSLKLSSVTAADTAVYYCARNPISIPAFDIWGQGTMVTVSSGGSGGSGGSSYVLTQPSSVSVAPGQTATISCGGHNIGSKNVHWYQQRPGQSPVLVIYQDNKRPSGIPERFSGSNSGNTATLTISGTQAMDEADYYCQVWDNYSVLFGGGTKLTVLGGSGGSQVQLVQSGAEVKKPGESLKVSCKASGYTFTSYYMHWVRQAPGQGLEWMGIINPSGGSTSYAQKFQGRVTMTRDTSTSTVYMELSSLRSEDTAVYYCARGSAYYYDFADYWGQGTLVTVSSGGSGGSGGSQPVLTQPPSVSVAPGKTARITCGGNNIGSKSVHWYQQKPGQAPVLVIYYDSDRPSGIPERFSGSNSGNTATLTISRVEAGDEADYYCQVWDTSSDHVLFGGGTKLTVLAAAGSHHHHHH
B8: scFv CD16A (CD16-5) (scFv)
scFv: QVQLVQSGAEVKKPGESLKVSCKASGYTFSSYYMHWVRQAPGQGLEWMGAIEPRGVRISYAQKFQGRVTMTRDTSTSTVYMELSSLRSEDTAVYYCARGSAYYYDFADYWGQGTLVTVSSGGSGGSGGSGGSGGSGGSSYVLTQPSSVSVAPGQTARITCGGHNIGSTNVHWYQQKPGQAPVLVIYQDSKRPSGIPERFSGSNSGNTATLTISGTQAMDEADYYCQVWDNYSVQFGGGTKLTVLAAAGSHHHHHH
B9: scFv CD16A (CD16-4) (scFv)
scFv: QVQLVQSGAEVKKPGESLKVSCKASGYSFSDFYIQWVRQAPGQGLEWMGIINPGGASTTYAQKFQGRVTMTRDTSTSTVYMELSSLRSEDTAVYYCARGSAYYYDFADYWGQGTLVTVSSGGSGGSGGSGGSGGSGGSSYVLTQPSSVSVAPGQTARITCGGYNIGRQSVHWYQQKPGQAPVLVIYQDSKRPSGIPERFSGSNSGNTATLTISGTQAMDEADYYCQVWDNYTVVFGGGTKLTVLAAAGSHHHHHH

Assays:
[1] = molecular target: human CD16B(NA1) ECD, mature form (without propeptide), fused to monomeric Fc (human) (UniProt O75015); test: ELISA, coated antigen-mFc
human CD16B(NA1) ECD, mature form (without propeptide), fused to monomeric Fc (human), sequence (O75015 other isoform, or with tags, fused parts or gaps): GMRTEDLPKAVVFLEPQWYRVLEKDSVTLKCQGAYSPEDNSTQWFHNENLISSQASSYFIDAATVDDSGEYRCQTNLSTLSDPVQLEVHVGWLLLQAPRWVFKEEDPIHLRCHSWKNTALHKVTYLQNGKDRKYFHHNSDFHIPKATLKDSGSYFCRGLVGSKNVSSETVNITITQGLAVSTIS

[2] = molecular target: human CD16A(48R, 158V) ECD fused to monomeric mFc.67 (human) (UniProt P08637); test: ELISA, coated antigen-mFc
human CD16A(48R, 158V) ECD fused to monomeric mFc.67 (human), sequence (P08637 17-208 L66R/F176V): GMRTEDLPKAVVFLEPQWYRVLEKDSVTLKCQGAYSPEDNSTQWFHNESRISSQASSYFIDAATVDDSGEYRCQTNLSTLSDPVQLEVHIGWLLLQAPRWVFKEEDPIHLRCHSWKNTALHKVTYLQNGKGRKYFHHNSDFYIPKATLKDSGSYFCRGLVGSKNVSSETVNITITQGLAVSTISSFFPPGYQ

[3] = molecular target: T1, CD16A on primary human NK cells (human, UniProt P08637); test: flow cytometry on primary human NK cells at 37 °C, without IgG; anti-His mAb and FITC goat anti-mouse IgG
T1 construct: full length, on the cell surface; also called FcgRIIIA on enriched human NK cells
T1 sequence (P08637 17-254 limits assumed): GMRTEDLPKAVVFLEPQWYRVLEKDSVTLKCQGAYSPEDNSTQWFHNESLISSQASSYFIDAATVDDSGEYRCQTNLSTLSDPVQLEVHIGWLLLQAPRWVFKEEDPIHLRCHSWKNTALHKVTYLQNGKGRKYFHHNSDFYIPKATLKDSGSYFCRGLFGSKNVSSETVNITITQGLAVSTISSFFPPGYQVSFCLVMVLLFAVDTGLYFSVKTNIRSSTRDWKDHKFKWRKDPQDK

[4] = molecular target: Human CD16A^(48R, 158V) fused to IgG Fc (human) (UniProt P08637); test: ELISA, coated antigen-IgG Fc
Human CD16A^(48R, 158V) fused to IgG Fc (human), sequence (P08637 17-208 L66R/F176V): as the sequence (P08637 17-208 L66R/F176V) above

[5] = molecular target: Cynomolgus CD16A fused to IgG Fc (cynomolgus; human) (UniProt Q8SPW2); test: ELISA, coated antigen-IgG Fc
Cynomolgus CD16A fused to IgG Fc (cynomolgus; human), sequence (Q8SPW2 17-208): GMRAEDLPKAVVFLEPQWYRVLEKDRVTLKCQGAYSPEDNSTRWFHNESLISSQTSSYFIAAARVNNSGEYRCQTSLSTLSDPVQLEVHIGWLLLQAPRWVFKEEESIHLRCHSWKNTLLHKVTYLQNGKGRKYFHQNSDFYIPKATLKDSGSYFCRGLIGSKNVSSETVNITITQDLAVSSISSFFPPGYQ

[6] = molecular target: Human CD16A^(48R, 158F) fused to IgG Fc (human) (UniProt P08637); test: ELISA, coated antigen-IgG Fc
Human CD16A^(48R, 158F) fused to IgG Fc (human), sequence (P08637 17-208 L66R): as the sequence (P08637 17-208 L66R/F176V) above, with V160F counted along it

[7] = molecular target: T1, CD16A on primary human NK cells; test: flow cytometry on primary human NK cells at 37 °C, with 10 mg/mL polyclonal human IgG; anti-His mAb and FITC goat anti-mouse IgG
[8] = molecular target: Human CD16B^H140Y fused to IgG Fc (human) (UniProt O75015); test: ELISA, coated antigen-IgG Fc
Human CD16B^H140Y fused to IgG Fc (human), sequence (O75015 other isoform, or with tags, fused parts or gaps H140Y H140Y limits assumed): as the sequence (P08637 17-208 L66R/F176V) above, with S49N, R50L, I90V, G131D, F187S counted along it

[9] = molecular target: T2, mature ECD of CD16B(NA1) expressed on the CHO cell surface (human, UniProt O75015 17-200); test: binding to recombinant CHO cells
T2 construct: mature; not shown: membrane anchor: transmembrane domain of human EGFR or GPI anchor

[10] = molecular target: T3, propeptide-containing ECD of CD16B(NA1) expressed on the CHO cell surface (human, UniProt O75015 17-208); test: binding to recombinant CHO cells
T3 construct: extracellular domain; not shown: membrane anchor: transmembrane domain of human EGFR or GPI anchor
T3 sequence (O75015 other isoform, or with tags, fused parts or gaps): as the sequence (P08637 17-208 L66R/F176V) above, with S49N, R50L, I90V, G131D, Y142H, F187S counted along it

[11] = molecular target: T4, recombinant EGFR expressed on CHO cells (specificity control) (UniProt P00533 25-1210, limits assumed); test: flow cytometry, MFI in cell binding to recombinant CHO cells; antigen EGFRTM anchored
T4 construct: whole, on cells; also called control EGFR antigen

[12] = molecular target: T1, CD16A on primary human NK cells; test: flow cytometry on primary human NK cells at 37 °C, without IgG; anti-His mAb and FITC goat anti-mouse IgG; remark: listed apart in the source
Procedure: (§1) After the last staining step, the cells were washed again and resuspended in 0.2 mL of FACS buffer containing 2 μg/mL propidium iodide (PI) (Sigma, cat.: P4170) in order to exclude dead cells. […] For the calculation of KD, the equation for one-site-binding (hyperbola) was used.

[13] = molecular target: human CD16B ECD mutant H140Y fused to monomeric mFc.67 (human) (UniProt O75015); test: ELISA, coated antigen-mFc
human CD16B ECD mutant H140Y fused to monomeric mFc.67 (human), sequence (O75015 other isoform, or with tags, fused parts or gaps H140Y H140Y): as the sequence (P08637 17-208 L66R/F176V) above, with S49N, R50L, I90V, G131D, F187S counted along it

[14] = molecular target: T1, CD16A on primary human NK cells; test: flow cytometry on primary human NK cells at 37 °C, without IgG; anti-His mAb and FITC goat anti-mouse IgG; remark: listed apart in the source
Procedure: as §1

[15] = molecular target: T5, huCD16A (48R,158V), EGFRTM anchored (human, UniProt P08637;P00533); test: flow cytometry, MFI in cell binding to recombinant CHO cells; antigen EGFRTM anchored
T5 construct: extracellular domain;transmembrane domain; Expressed on recombinant CHO cells; one member of the group m39
T5 sequence (P08637 other isoform, or with tags, fused parts or gaps limits assumed): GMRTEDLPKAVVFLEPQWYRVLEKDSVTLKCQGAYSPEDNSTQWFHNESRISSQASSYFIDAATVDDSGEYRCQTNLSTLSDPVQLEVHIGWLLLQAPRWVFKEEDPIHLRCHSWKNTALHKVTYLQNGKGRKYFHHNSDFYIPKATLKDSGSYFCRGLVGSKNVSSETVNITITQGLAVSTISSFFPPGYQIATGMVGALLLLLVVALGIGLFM

[16] = molecular target: T2, mature ECD of CD16B(NA1) expressed on …; test: as above
[17] = molecular target: T3, propeptide-containing ECD of CD16B(NA1) …; test: as above
[18] = molecular target: human CD16A(48R, 158V) ECD fused to monomeric mFc.67 (human) (UniProt P08637); test: ELISA, coated antigen-mFc, Protein L-HRP
[19] = molecular target: human CD16B ECD mutant H140Y fused to monomeric mFc.67 (human) (UniProt O75015); test: ELISA, coated antigen-mFc, Protein L-HRP
[20] = molecular target: Human CD16B(NA1)^pr fused to IgG Fc (human) (UniProt O75015); test: ELISA, coated antigen-IgG Fc
Human CD16B(NA1)^pr fused to IgG Fc (human), sequence (O75015 other isoform, or with tags, fused parts or gaps limits assumed): as the sequence (P08637 17-208 L66R/F176V) above, with S49N, R50L, I90V, G131D, Y142H, F187S counted along it

| Molecule | EC50 [2] | EC50 [4] | EC50 [5] | EC50 [6] | EC50 [8] | other results |
| --- | --- | --- | --- | --- | --- | --- |
| scFv antibody comprising the variable heavy and light chain sequences of antibody 3G8 | 1 nM | 1.2 nM | 7.5 nM | 7.6 nM | – | EC50 [1]: 0.9 nM; EC50 (read off the curve) [3]: 3 nM; EC50 (read off the curve) [7]: 20 nM |
| B1 | – | 1.2 nM | 1.4 nM | 1.2 nM | 1.3 nM | – |
| B2 | – | 14.4 nM | 16.2 nM | 25.7 nM | 9.5 nM | binding result [9]: no binding; binding result [10]: no binding; binding result [11]: no binding; EC50 (read off the curve) [12]: ~40 nM |
| B3 | 1.6 nM | 1.5 nM | 2.5 nM | 2.8 nM | 1.2 nM | EC50 [13]: 1.3 nM; binding result [9]: no binding; binding result [10]: no binding; binding result [11]: no binding; EC50 (read off the curve) [7]: ~30 nM; EC50 (read off the curve) [14]: ~10 nM |
| B4 | – | – | – | – | – | binding result [15]: no binding; binding result [16]: no binding; binding result [17]: no binding |
| B5 | – | 1.8 nM | 1.6 nM | 2.4 nM | 1.7 nM | – |
| B6 | – | – | – | – | – | EC50 [18]: 1.1 nM; EC50 [19]: 1.2 nM |
| B7 | 0.6 nM | – | – | – | – | EC50 [13]: 0.5 nM |
| B8 | – | 1.2 nM | 1.4 nM | 0.8 nM | 1.1 nM | EC50 [20]: 24.9 nM |
| B9 | – | 2.2 nM | 1.4 nM | 2.5 nM | 1.7 nM | – |
